Entries after “also recorded” stand apart in the source; their conditions may differ.
Legend:
Ag0067 (LS2A R2M9) = assay: BLI LITE Switch indinavir washout/reversibility kinetics; assay type: binding
Experimental: Binding was measured by biolayer interferometry (BLI). Biotinylated-Ag0067 (LS2A R2M9) was captured on streptavidin biosensors. Binding of 50 nM Ab1073 (LS2B R7M2) to Ag0067 was allowed to reach steady-state in the presence of 1 μM IDV. Complex dissociation was subsequently performed for 2 hours in buffer containing (1) 50 nM Ab1073 and 1 μM IDV, (2) 50 nM Ab1073 and vehicle (washout), and (3) vehicle only. […] In 2 hours of IDV washout, the LITE Switch dissociated to nearly 0% complex, whereas complete complex dissociation was observed within 10 min upon removal of both Ab1073 and IDV.
LITE Switch indinivir (IDV) washout/reversibility kinetics (FIG. 21) were measured by biolayer interferometry (BLI) on an Octet® Qke (Sartorius) instrument. Biotinylated scFv-Fc Ag67, in the presence of 1 μM IDV or 0.05% DMSO vehicle, was immobilized on streptavidin biosensors and loaded to a signal of 1.2-1.8 nm. After loading, biosensors were blocked with 10 μM biotin containing 1 μM IDV or vehicle. […] Data were analyzed using ForteBio Data Analysis HT software version 12.0.2.59. Dissociation constants were determined using a 1:1 monovalent binding model, local fitting, and with dissociation baseline to zero. Data were additionally analyzed using GraphPad Prism 9 software version 9.1.2 (225) with a one-phase exponential decay nonlinear regression model. […]

LS2A R3M1 (Ab0786) = assay: BLI binding of LS2B variants to LS2A R3M1 (Ab0786) with indinavir
Experimental: Binding kinetics were measured by biolayer interferometry (BLI). Biotinylated-Ab0785 (LS2A R2M34 Fab) or biotinylated-Ab0786 (LS2A R3M1 Fab) was captured by streptavidin biosensors and binding to Ab1071 (LS2B R5M2 Fab), Ab1072 (LS2B R7M1 Fab), and Ab1073 (LS2B R7M2 Fab) was measured in the presence of […].
In R6 of engineering, alanine scanning of clone R4M16 were performed to find improved binding to LS2A R3M2 (Ab0787) and LS2A R3M1 (Ab0786). Variants were screened for binding to LS2A (Ab0223) and LS2A R3M2 (Ab0787) with a single-point kinetic screen.
In R7, combination mutants from R6 were designed to generate further affinity variants. Variants were screened for binding to LS2A Ab0787 and Ab0786 with a single-point kinetic screen. Five-point kinetics was measured for a subset of molecules.
(§1) Bio-layer interferometry (BLI) data were measured using an Octet RED384 (ForteBio) instrument. Antigens of interest were immobilized on an AHC biosensor and loaded until a 0.4-0.6-nm signal was achieved. Purified antibodies were used as the analyte premixed with 10 μM Indinavir or 0.05% DMSO vehicle. PBSTB (PBS, pH 7.4, 0.05% Tween-20, 0.2% BSA) was used for all buffers for BLI. Data were analyzed using ForteBio Octet analysis software and kinetic parameters were determined using a 1:1 monovalent binding model.

[1] = Differential scanning fluorimetry (DSF) melting temperature; assay type: physicochemical
Experimental: DSF was performed on a LC480 Lightcycler Instrument II (Roche). Purified recombinant protein was diluted to 5 μM in DSF buffer (PBS, pH 7.4, Sypro Orange 5×) with small molecule (10 μM VTX) or vehicle (0.05% DMSO) and then heated with a temperature gradient (0.01° C./s) from 25 to 95° C. Data were continuously acquired at ˜465 nm (excitation) and ˜580 nm (emission). Data was analyzed to generate first derivative curves in which the curve maximum was reported as the melting temperature of the protein.

Ab0902 (LS2B R5M2) = assay: BLI indinavir-dependent binding of LS2A Ab0223 to LS2B Ab0902
Experimental: Binding was measured by biolayer interferometry (BLI). Ab0902 (LS2B R5M2) was captured by anti-hIgG Fc capture (AHC) biosensors and kinetics was measured to Ab0223 (LS2A humanized parent) in the presence of […].
A series of biophysical experiments was conducted to further elucidate a mechanism for Indinavir switch assembly. Biolayer interferometry experiments were performed to measure LS2A and LS21B assembly in the presence and absence of saturating concentrations of Indinavir. […] A BLI kinetics assay was performed to assess the reversibility kinetics of the LS2A/LS2B complex upon Indinavir washout.
as §1

[2] = SPR binding of free indinavir to LS2A clones; conditions: read-out: Affinity to free Indinavir by SPR
Experimental: Detailed methods are described in the methods section. […] A 3-fold serial dilution of indinavir was injected over sensor chip and binding was measured using single-cycle kinetics. The data was double reference subtracted and fit to a 1:1 Langmuir kinetic model.
All assays were performed at 25° C. in 1×PBS-P+ buffer made from a 10× buffer stock (Cytiva 28995084). […] For Ab0759, a single-cycle kinetics experiment was performed with five sequential injections of 3-fold serial diluted (37, 111, 333, 1000, 3000 nM) indinavir at 30 μL/min for 240 seconds each and dissociation was monitored for 600 seconds. […] The data was double referenced subtracted to the reference lane and five sequential injections of 0 nM indinavir. The kinetic data was fit to a 1:1 Langmuir model to determine the association and dissociation rate constants.

B1: Ab1073: LS2B R7M2 Fab (antibody, V domains shown)
VH: EVQLVESGGGLVQPGGSLRLSCAASGFDFSSYSIHWVRQAPGKGLEWVAAISPYYGSTYYADSVKGRFTISADTSKNTAYLQMNSLRAEDTAVYYCARYYEYYKYDLYAGSLGFDYWGQGTLVTVSS
VL: DIQMTQSPSSLSASVGDRVTITCRASQSVSSAVAWYQQKPGKAPKLLIYSASSLYSGVPSRFSGSRSGTDFTLTISSLQPEDFATYYCQQGGYSLITFGQGTKVEIK
- LITE Switch reversibility at constant Ab1073 and IDV (Ag0067 (LS2A R2M9); 50 nM Ab1073 and 1 μM IDV): no LITE Switch reversibility was observed
- complex remaining after IDV washout (Ag0067 (LS2A R2M9); 2 hours, 50 nM Ab1073 and vehicle): ~0%
- binding to LS2A clones (FIG. 17) (LS2A R3M1 (Ab0786); biotinylated Ab0785 (R2M34) or Ab0786 (R3M1) captured, indinavir present): improved affinities

B2: Ab1045: LS2B; HC: S50A+W98Y on Ab0902 (antibody, V domains shown)
VH: B1 VH
VL: B1 VL
- Kd (LS2A R3M1 (Ab0786); five-point kinetics, values equal Table 15 column LS2A Ab0786): 40 nM
- TM (° C.) ([1]; Table 15): 77.7 °C

B3: Ab0223: LS2A humanized parent (antibody, V domains shown)
VH: QVQLVQSGAEVKKPGASVKVSCKASGYTFTSYWMHWVRQAPGQGLEWMGIIHPNSGGTSYAQKFQGRVTMTRDTSTSTVYMELSSLRSEDTAVYYCAMGDYVSRDYWGQGTLVTVSS
VL: EIVLTQSPGTLSLSPGERATLSCRASSSVSSSYLHWYQQKPGQAPRLLIYSTSSRATGIPDRFSGSGSGTDFTLTISRLEPEDFAVYYCQQYSGYLFTFGQGTKLEIK
- Kd (Ab0902 (LS2B R5M2); in the presence of 10 μM IDV, read-out: affinity for binding to Ab0902): 1.6 nM
- binding to Ab0902 in the absence of Indinavir (Ab0902 (LS2B R5M2); no indinavir): no binding was detected; also recorded: no detectable interaction

B4: Ab0899: humanized LS2A R3M1 (protein)
scFv: QVQLVQSGAEVKKPGASVKVSCKASGYTFTSYWMHWVRQHPGQGLEWMGMIHPNSGGTNYAQKFQGRVTMTRDTSTSTVYMELSSLRSEDTAVYYCAMGDYVSRDYWGQGTLVTVSSGGGGSGGGGSGGGGSEIVLTQSPGTLSLSPGERATLSCRASSSVSSSYLHWYQQKPGQAPRLLIYSTSSRATGIPDRFSGSGSGTDFTLTISRLEPEDFAVYYCQQYSGYQFTFGQGTKLEIK
modifications: left off: a dimerising Fc or GST; small tags and cut ends
notes: humanized LS2A R3M1
- TM (° C.) ([1]; scFv-Fc format, LS2A R3 (Table 20)): 56.1 °C
- Kd [2]: 4.6 nM
